According to the supplement of paper PMC9732359:
± gives the uncertainty stated by the source.

Test: protein stability index of a GFP-peptide fusion (yeast GPS) (PSI 1-4); higher = more stable; sorted into four equal gates, so the index is relative within each strain
Procedure, shortened: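 Sequencing reads from sorted gates were used to score each peptide. The library consisted of tiled 17-residue yeast protein peptides fused downstream of GFP on a Cherry-expressing plasmid, pooled and carried in yeast. Mid-log cultures in leucine-free medium were split into four equal gates by GFP/Cherry ratio, and each gate's plasmids were PCR-amplified and Illumina-sequenced. The protein stability index adds up, over all gates, the read frequency multiplied by the gate number.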

Sequence | protein stability index (doa10∆) | protein stability index (pdr5∆) | protein stability index (san1∆) | protein stability index (ubr1∆)
DYVTNPDTKISSAAILG [RPN1] | 2.42 ± 0.087 | 2.43 ± 0.1 | 2.21 ± 0.17 | 1.91 ± 0.1
AVDHRRQNRNQEIFDAN [RPL13A] | 3.15 ± 0.075 | 3.21 ± 0.058 | 3.23 ± 0.044 | 3.34 ± 0.046
PTTNEPAKPALSFGTAT [YJL041W/NSP1] | 2.97 ± 0.074 | 3.08 ± 0.063 | 2.96 ± 0.053 | 3.12 ± 0.042
LIKTLSTLHMLGYTHIA [RPP1] | 2.49 ± 0.081 | 2.65 ± 0.087 | 2.62 ± 0.099 | 2.65 ± 0.071
HRKHIAVLKKIQSKAVE [YCG1] | 2.55 ± 0.11 | 2.81 ± 0.097 | 2.69 ± 0.1 | 2.57 ± 0.064
DASPAPSNESCSPWSLQ [SRB5] | 2.72 ± 0.071 | 2.43 ± 0.052 | 2.86 ± 0.046 | 2.33 ± 0.033
HFNGIRRLDALVEKVYA [ITC1] | 3.65 ± 0.11 | 2.77 ± 0.068 | 1.94 ± 0.28 | 2.95 ± 0.089
DDDDDEDEEEEEEVTDQ [QCR6] | 3.02 ± 0.061 | 3.73 ± 0.22 | 3.4 ± 0.047 | 3.4 ± 0.12
FYGVLDQGNGWLYVYET [RPN6] | 2.9 ± 0.095 | 2.65 ± 0.073 | 1.9 ± 0.095 | 3.02 ± 0.071
ESKLSLETLFNRWHSES [FAS2] | 3.26 ± 0.084 | 3.24 ± 0.1 | 3.1 ± 0.064 | 3.11 ± 0.065
GSAELRNSYPASFYSVN [RPN3] | 3.12 ± 0.21 | 3.15 ± 0.11 | 2.87 ± 0.059 | 3.55 ± 0.092
ENIIQMEMIENRTMDGK [FAS1] | 2.78 ± 0.084 | 2.81 ± 0.11 | 2.81 ± 0.12 | 3.02 ± 0.069
LPKIKTVRKSIACVLTV [RPL35A] | 1.98 ± 0.28 | 2.79 ± 0.18 | – | 2.17 ± 0.14
SDKPSLPSAVDGENDKK [YLR335W/NUP2] | 3.4 ± 0.08 | 3.42 ± 0.086 | 3.37 ± 0.071 | 3.35 ± 0.11
YYDRKEELKNMFLYILK [RRI2] | 2.16 ± 0.22 | 1.95 ± 0.13 | 1.27 ± 0.11 | 1.52 ± 0.1
DSNKTLLHNHLKSIESL [SMC2] | 1.87 ± 0.089 | 2.44 ± 0.095 | 1.49 ± 0.22 | 2.78 ± 0.11
LTADARSMIEHARTAAV [PUP2] | 2.11 ± 0.13 | 2.87 ± 0.22 | 2.38 ± 0.16 | 2.71 ± 0.084
GSNQKPKYEPPVQSKFG [RPT2] | 2.94 ± 0.13 | 3 ± 0.15 | 2.34 ± 0.22 | 3.09 ± 0.099
TEKEEDAELMADEEEEI [ISW2] | 3.5 ± 0.18 | 3.38 ± 0.13 | 3.41 ± 0.083 | 3.34 ± 0.17
EVEVSTRDLFDLEKDRA [RPO31] | 3.07 ± 0.052 | 3.37 ± 0.061 | 3.28 ± 0.042 | 3.23 ± 0.048

Sequence | protein stability index (doa10∆) | protein stability index (pdr5∆) | protein stability index (san1∆) | protein stability index (ubr1∆)
YVKEKLEAVNSMIEKGG [RPN7] | 2.93 ± 0.14 | 2.98 ± 0.1 | 2.77 ± 0.08 | 2.83 ± 0.06
MEIVANAKESNYTDLIW [MED1] | 3.27 ± 0.094 | 3.41 ± 0.16 | 3.44 ± 0.078 | 2.83 ± 0.081
AEQFKHQHGDKVDIFEI [FAS2] | – | – | – | 3.06 ± 0.21
VEQDEGQCRTELEGSFN [YCS4] | 3.38 ± 0.081 | 3.48 ± 0.098 | 3.12 ± 0.14 | 3.49 ± 0.067
LYNKIWTEASSSGAGTV [ECM29] | 2.12 ± 0.065 | 1.76 ± 0.058 | 2.12 ± 0.081 | 2.93 ± 0.08
EISISFDVNNIDMHLIY [YDL116W/NUP84] | 1.94 ± 0.082 | 2.43 ± 0.093 | 2.02 ± 0.089 | 2.25 ± 0.057
RLTRLWIKNEQERQRQI [PRP8] | 2.42 ± 0.14 | 2.56 ± 0.26 | – | –
QAYQFLNTFGSKICLSH [ITC1] | 2.06 ± 0.076 | 1.33 ± 0.049 | 1.63 ± 0.082 | 1.42 ± 0.054
EKDFCTSCLQNNNQKID [SRB8] | 3.13 ± 0.09 | 3.29 ± 0.13 | – | 2.93 ± 0.055
VLKTLEYKLATYGVPGS [NUT1] | 2.75 ± 0.068 | 2.54 ± 0.066 | 3.27 ± 0.045 | 2.18 ± 0.08
AYGNWFNGLKPLIQNSM [PRP8] | 2.94 ± 0.063 | 3.31 ± 0.099 | 2.85 ± 0.11 | 3.13 ± 0.049
GENNINFQKASATLDGC [BRN1] | 2.94 ± 0.23 | 3.3 ± 0.21 | 3.12 ± 0.25 | –
QFPEIAYPGKLICPQYG [CSL4] | 2.01 ± 0.054 | 2.11 ± 0.059 | 1.94 ± 0.1 | 2.17 ± 0.053
YMEKGTQLDDLQHELMI [YML103C/NUP188] | 2.62 ± 0.058 | 2.31 ± 0.059 | 2.19 ± 0.063 | 2.25 ± 0.035
DTCAVSFDAVSDSIELL [YJR042W/NUP85] | 3.04 ± 0.12 | 3.46 ± 0.1 | 2.51 ± 0.25 | 2.65 ± 0.15
EEKVLSTRLKKACKTAD [SRP68] | 3.18 ± 0.087 | 3.22 ± 0.077 | 3.56 ± 0.14 | 3.21 ± 0.075
FNYVQECPAIPIFNYIF [YJL039C/NUP192] | 1.9 ± 0.072 | 1.75 ± 0.056 | 1.88 ± 0.082 | 1.85 ± 0.042
DKDNPVDSRNETDHKTN [SRB4] | 3.38 ± 0.14 | 2.85 ± 0.15 | 2.88 ± 0.086 | 3.3 ± 0.18
DENGTNSAIANEQEEKS [RPC37] | 2.65 ± 0.083 | 2.83 ± 0.1 | 2.74 ± 0.047 | 3.07 ± 0.051
IFNSGKMIILDKLLKRL [ISW2] | 2.17 ± 0.077 | 1.93 ± 0.055 | 1.55 ± 0.1 | 2.17 ± 0.046
